Here are results for one molecule from PMC9146136 (2022).

This test concerns the target anti-mTNFα 3B11 VNAR (soluble, purified). Nature of the test: BLI.

B1: extracellular domain of mTNFα (mTNFα ECD, 77-235aa) (domain or fragment)
chain: TLTLRSSSQNSSDKPVAHVVANHQVEEQLEWLSQRANALLANGMDLKDNQLVVPADGLYLVYSQVLFKGQGCPDYVLLTHTVSRFAISYQEKVNLLSAVKSPCPKDTPEGAELKPWYEPIYLGGVFQLEKGDQLSAEVNLPKYLDFAESGQVYFGVIAL
modifications: biotin (biotin-NHS labeling reaction) in the BLI assay only
For the molecule B1, the koff was 2.69e-05 s⁻¹.
